Here are results for four substances from patent US20250353921A1.

In assay [1] the target is human OX40 (TNFRSF4, CD134) on cells (human) (UniProt P43489). The assay is described as follows: cell-based or functional assay.
Assay [2] has as its target Human OX40 (Acro Biosystems, catalog NO: OXO-H5224) protein (human) (UniProt P43489). The assay is described as follows: SPR Biacore 8K+, single cycle kinetics, antibody captured by anti-human Fc, OX40 analyte, pH 7.4, 25 °C.
For assay [3], the target named is human OX40 (TNFRSF4, CD134) on cells (human) (UniProt P43489). The assay is described as follows: flow cytometry on Jurkat-NFκB (OX40) cells, detection with anti-human IgG Fc-AF647.

Several values for one entry are separate records, joined by “and”; a condition that tells them apart may be missing. Equal entries are not always repeated.

Sequence of human OX40 (TNFRSF4, CD134) on cells (human) (P43489 29-277 limits assumed): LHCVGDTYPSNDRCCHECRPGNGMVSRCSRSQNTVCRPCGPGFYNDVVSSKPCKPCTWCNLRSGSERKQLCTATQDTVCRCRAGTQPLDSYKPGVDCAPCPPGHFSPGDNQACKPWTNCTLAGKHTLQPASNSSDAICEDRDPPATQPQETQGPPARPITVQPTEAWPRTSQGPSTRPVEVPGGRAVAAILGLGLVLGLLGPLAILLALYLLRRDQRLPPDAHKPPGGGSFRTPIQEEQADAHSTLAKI
Sequence of Human OX40 (Acro Biosystems, catalog NO: OXO-H5224) protein (human) (P43489 29-216 limits assumed): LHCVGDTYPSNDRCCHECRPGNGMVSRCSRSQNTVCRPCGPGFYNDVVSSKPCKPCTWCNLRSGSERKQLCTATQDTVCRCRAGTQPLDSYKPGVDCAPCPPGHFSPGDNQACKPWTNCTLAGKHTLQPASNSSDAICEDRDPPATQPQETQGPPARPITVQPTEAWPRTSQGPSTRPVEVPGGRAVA

In assay [1], AMG451 (rocatinlimab) (antibody) came in with an ADCC EC50, activated T cells of 0.008 nM; an ADCC EC50, in vitro differentiated Tregs of 0.005 nM; an ADCC EC50, regulatory T cells (LDH release) of 0.05 nM; an EC50, inhibition of IL-2 release of 5.87 nM. In addition, in assay [1], the EC50, inhibition of IL-4 release is 1.77 nM; the EC50, inhibition of IL-5 release is 18.6 nM; the EC50, inhibition of IL-8 release turned out to be 4.05 nM; the EC50, inhibition of IL-10 release worked out at 20.3 nM. In assay [1], this substance displayed an EC50, inhibition of IL-13 release of 4 nM; an EC50, inhibition of IL-17a release of 11.7 nM; an EC50, inhibition of IL-21 release of 2.75 nM; an EC50, inhibition of IL-22 release of 10.4 nM. Besides, in assay [1], the EC50, inhibition of IL-31 release is 1.84 nM; the EC50, inhibition of T cell proliferation was 0.15 nM and 0.019 µg/ml; the EC50, inhibition of TNF-α release amounted to 3.9 nM; the Maximum killing (%), ADCC, activated T cells worked out at 60.3%. Besides, in assay [1], the Maximum killing (%), ADCC, regulatory T cells came to 85.8% and the responders (Resp) of donors tested, coated T cell agonism assay (responders of 9 donors) was determined as 7. The same substance gave an equilibrium dissociation constant (Kd) in assay [2] of 3 nM.

As for IMG-007 (antibody), the luminescence, Jurkat-NFκB-OX40 agonism assay in assay [1] was found to be 3 fold.

IgG1 control (antibody): in assay [1], the Maximum killing (%), ADCC, activated T cells worked out at 2.27%; the Maximum killing (%), ADCC, regulatory T cells is -0.83%; the average proliferation index (Av), coated T cell agonism assay is 1.16; the responders (Resp) of donors tested, coated T cell agonism assay (responders of 15 donors) stood at 0.

Regarding “MEDI0562 (humanized 9B12, tavolixizumab) (antibody)”, in assay [1], the average proliferation index (Av), coated T cell agonism assay was found to be 3.41; the luminescence, Jurkat-NFκB-OX40 agonism assay was > 2 fold; the responders (Resp) of donors tested, coated T cell agonism assay (responders of 11 donors) stood at 9. The same substance showed an EC50 (read off the curve) in assay [3] of 0.1 µg/mL.
